Ends that are not written are not given here.

Four molecules from patent US20040014149A1 (RIGEL PHARMACEUTICALS, published 2004) can be followed below.

The target in test [1] is T1, human thioredoxin-like 32 kDa protein (hTXNL) (human, UniProt O43396 1-289, limits assumed).
T1 sequence: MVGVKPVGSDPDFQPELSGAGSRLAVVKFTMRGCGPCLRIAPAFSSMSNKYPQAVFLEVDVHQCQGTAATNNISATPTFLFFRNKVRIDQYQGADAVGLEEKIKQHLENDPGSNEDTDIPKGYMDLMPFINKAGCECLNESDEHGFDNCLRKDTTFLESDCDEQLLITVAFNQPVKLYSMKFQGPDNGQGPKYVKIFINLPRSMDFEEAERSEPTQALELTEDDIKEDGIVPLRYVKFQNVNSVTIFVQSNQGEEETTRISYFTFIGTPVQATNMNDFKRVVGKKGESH
Briefly: cell-based or functional assay.

For test [2], the target named is T1, human thioredoxin-like 32 kDa protein …. Briefly: cell-based or functional assay. The source holds these as a separate data set.

For PERCYMRMPPQSLADAQIYS (peptide, not shown: large carriers, also: expressed as BFP-linker-peptide fusion, construct not described) [peptide DR15wt], the “Reporter Ratio (A5T4 germline epsilon promoter GFP reporter line)” value in test [1] came to 1.69. For the same molecule, in test [2], the “endogenous epsilon inhibition ratio (TAQMAN quantitative PCR)” value was found to be 1.56 and the “reporter ratio (original library clone, +IL-4/+Dox to +IL-4/-Dox GFP)” value is 1.43.

On to PERCAARMPPQSLADAQIYS (peptide, not shown: large carriers) [peptide DR15YM], for which the “Reporter Ratio (A5T4 germline epsilon promoter GFP reporter line)” value in test [1] was 1.22.

Consider AARCYMRMPPQSLADAQIYS (peptide, not shown: large carriers) [peptide DR15PE], for which, in test [1], the “Reporter Ratio (A5T4 germline epsilon promoter GFP reporter line)” value stood at 2.22.

Turning to PERCYMRMPPQSLADAAAYS (peptide, not shown: large carriers) [peptide DR15QI], the “Reporter Ratio (A5T4 germline epsilon promoter GFP reporter line)” value in test [1] worked out at 1.35.
